B1: APBB1IP (parent)
chain: SQVSMWDQRWQDHQPLLPITDVP

Variants of: B1
Assay: protein stability index of a GFP-peptide fusion (GPS, HEK-293T) (PSI 1-6); higher = more stable
Conditions: c terminus: native
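Further: lentivirally expressed fusions sorted by FACS into six bins by GFP to DsRed ratio, PSI derived from sequencing read proportions per bin multiplied by bin number.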

Point of comparison: SQVSMWDQRWQCHQPLLPITDVP [D12C], protein stability index 1.56. Against it:
- SQVSMWDQRWQDHQPILPITDVP [L16I] — higher, 2.55
- SQVSMWDQRWQDHQPDLPITDVP [L16D] — higher, 3.42
- SQVSMWDQRWQDHQPSLPITDVP [L16S] — higher, 2.98
- SQVSMWDQRWQDHQPQLPITDVP [L16Q] — higher, 2.73
- SQVSMWDQRWQDHQPELPITDVP [L16E] — higher, 3.38
- SQVSMWDQRWQDHQPFLPITDVP [L16F] — higher, 3.4
- SQVSMWDQRWQDHQPALPITDVP [L16A] — higher, 2.95
- SQVSMWDQRWQDHQPPLPITDVP [L16P] — higher, 2.38
- SQVSMWDQRWQDHQPMLPITDVP [L16M] — higher, 2.53
- SQVSVWDQRWQDHQPLLPITDVP [M5V] — higher, 1.65
- SQVSCWDQRWQDHQPLLPITDVP [M5C] — lower, 1.52
- SQVSKWDQRWQDHQPLLPITDVP [M5K] — higher, 2.64
- SQVSFWDQRWQDHQPLLPITDVP [M5F] — higher, 1.89
- SQVSIWDQRWQDHQPLLPITDVP [M5I] — higher, 1.98
- SQVSAWDQRWQDHQPLLPITDVP [M5A] — higher, 3.14
- SQVSMWDQRWLDHQPLLPITDVP [Q11L] — higher, 1.59
- SQVSMWDQRWRDHQPLLPITDVP [Q11R] — higher, 3.7
- SQVSMWDQRWNDHQPLLPITDVP [Q11N] — higher, 2.74
- SQVSMWDQRWADHQPLLPITDVP [Q11A] — higher, 1.84
- SQVSMWDQRWPDHQPLLPITDVP [Q11P] — higher, 2.1
- SQVSMWDQRWSDHQPLLPITDVP [Q11S] — higher, 2.37
- SQVSMWDQRWDDHQPLLPITDVP [Q11D] — higher, 2.38
- SQVSMWDQRWHDHQPLLPITDVP [Q11H] — higher, 1.67
- SQVSMWDQRWGDHQPLLPITDVP [Q11G] — higher, 1.77
- SQVSMWDQRWMDHQPLLPITDVP [Q11M] — higher, 2.06
- SQVSMWDQRWIDHQPLLPITDVP [Q11I] — higher, 3.03
- EQVSMWDQRWQDHQPLLPITDVP [S1E] — higher, 3.87
- MQVSMWDQRWQDHQPLLPITDVP [S1M] — higher, 1.96
- TQVSMWDQRWQDHQPLLPITDVP [S1T] — higher, 2.04
- GQVSMWDQRWQDHQPLLPITDVP [S1G] — higher, 2.03
- SQVSMWDQRWQEHQPLLPITDVP [D12E] — higher, 2.15
- SQVSMWDQRWQMHQPLLPITDVP [D12M] — higher, 1.85
- SQVSMWDQRWQKHQPLLPITDVP [D12K] — higher, 1.71
- SQVSMWDQRWQFHQPLLPITDVP [D12F] — higher, 1.8
- SQVSMWDQRWQPHQPLLPITDVP [D12P] — higher, 1.78
- SQVSMWDQRWQWHQPLLPITDVP [D12W] — lower, 1.24
- SQVSMWDQRWQTHQPLLPITDVP [D12T] — higher, 2.59
- SQVSMWDARWQDHQPLLPITDVP [Q8A] — higher, 2.03
- SQVSMWDVRWQDHQPLLPITDVP [Q8V] — higher, 2.33
- SQVSMWDIRWQDHQPLLPITDVP [Q8I] — higher, 1.94
- SQVSMWDMRWQDHQPLLPITDVP [Q8M] — lower, 1.39
- SQVSMWDNRWQDHQPLLPITDVP [Q8N] — higher, 2.68
- SQVSMWDPRWQDHQPLLPITDVP [Q8P] — higher, 2.13
- SQVSMWDWRWQDHQPLLPITDVP [Q8W] — higher, 3.03
- SQVSMWDRRWQDHQPLLPITDVP [Q8R] — higher, 1.78
- SQVSMWDCRWQDHQPLLPITDVP [Q8C] — lower, 1.37
- SQVSMWDYRWQDHQPLLPITDVP [Q8Y] — higher, 2.21
- SIVSMWDQRWQDHQPLLPITDVP [Q2I] — higher, 2.75
- STVSMWDQRWQDHQPLLPITDVP [Q2T] — higher, 2.54
- SMVSMWDQRWQDHQPLLPITDVP [Q2M] — higher, 3.18
- SKVSMWDQRWQDHQPLLPITDVP [Q2K] — higher, 2.57
- SSVSMWDQRWQDHQPLLPITDVP [Q2S] — higher, 1.88
- SPVSMWDQRWQDHQPLLPITDVP [Q2P] — higher, 2.83
- SWVSMWDQRWQDHQPLLPITDVP [Q2W] — higher, 1.72
- SQVSMWDQRWQDHQPLLPITDFP [V22F] — higher, 2.72
- SQVSMWDQRWQDHQPLLPITDIP [V22I] — higher, 2.19
- SQVSMWDQRWQDHQPLLPITDQP [V22Q] — higher, 2.98
- SQVSMWDQRWQDHQPLLPITDRP [V22R] — higher, 2.99
- SQVSMWDQRWQDHQPLLPITDYP [V22Y] — higher, 1.91
- SQVSMWDQRWQDHQPLLPITDSP [V22S] — higher, 2.8
- SQVSMWDQRWQDHQPLLPITDDP [V22D] — higher, 3.85
- SQVSMWDQRWQDHTPLLPITDVP [Q14T] — higher, 2.48
- SQVSMWDQRWQDHAPLLPITDVP [Q14A] — higher, 2.48
- SQVSMWDQRWQDHHPLLPITDVP [Q14H] — higher, 2.67
- SQVSMWDQRWQDHIPLLPITDVP [Q14I] — higher, 2.09
- SQVSMWDQRWQDHGPLLPITDVP [Q14G] — higher, 2.54
- SQVSMWDQRWQDHCPLLPITDVP [Q14C] — higher, 3.58
- SQVSMWDQRWQDHRPLLPITDVP [Q14R] — higher, 1.86
- SQVSMWDQRWQDHEPLLPITDVP [Q14E] — higher, 3.31
- SQVSMWDQRWQDLQPLLPITDVP [H13L] — higher, 1.95
- SQVSMWDQRWQDCQPLLPITDVP [H13C] — higher, 2.24
- SQVSMWDQRWQDKQPLLPITDVP [H13K] — higher, 2.76
- SQVSMWDQRWQDEQPLLPITDVP [H13E] — higher, 3.47
- SQVSMWDQRWQDNQPLLPITDVP [H13N] — higher, 2.85
- SQVSMWDQRWQDPQPLLPITDVP [H13P] — higher, 2.23
- SQVSMWDQRWQDIQPLLPITDVP [H13I] — higher, 2.3
- SQVSMWDQRWQDGQPLLPITDVP [H13G] — higher, 3.03
- SQVSMWDQRWQDWQPLLPITDVP [H13W] — lower, 1.5
- SQVSMWDQRWQDHQGLLPITDVP [P15G] — higher, 3.45
- SQVSMWDQRWQDHQTLLPITDVP [P15T] — higher, 1.93
- SQVSMWDQRWQDHQYLLPITDVP [P15Y] — higher, 2.27
- SQVSMWDQRWQDHQVLLPITDVP [P15V] — lower, 1.55
- SQVSMWDQRWQDHQHLLPITDVP [P15H] — higher, 2.07
- SQVSMWDQRWQDHQILLPITDVP [P15I] — higher, 2.03
- SQVSMWDQRWQDHQPLLPIYDVP [T20Y] — higher, 1.88
- SQVSMWDQRWQDHQPLLPIQDVP [T20Q] — higher, 2.61
- SQVSMWDQRWQDHQPLLPIKDVP [T20K] — higher, 3.24
- SQVSMWDQRWQDHQPLLPIDDVP [T20D] — higher, 2.67
- SQVSMWDQRWQDHQPLLPILDVP [T20L] — higher, 1.92
- SQVSMWDQRWQDHQPLLPIGDVP [T20G] — higher, 1.77
- SQVSMWDQRWQDHQPLLPIRDVP [T20R] — higher, 2.32
- SQVSMWDQRWQDHQPLLPIIDVP [T20I] — higher, 1.79
- SQVSMWDQRWQDHQPLLPINDVP [T20N] — higher, 3.23
- SQVSMWDQRWQDHQPLLPIPDVP [T20P] — higher, 2.7
- SQVSMWDQRWQDHQPLVPITDVP [L17V] — higher, 2.71
